Measured values: patent publication US20240066131A1 (Protagonist Therapeutics, Inc., priority 2020, published 2024)
Each block holds one binder with its values, some of them ahead of it. Starred links: 1 amine or outer side, 2 acyl side, 3 side chain; linkers in the order of their positions; H or OH if unused. Non-standard residues stand in square brackets, D forms with d. Groups on a side chain read outwards from the residue. No end group written: not given here. *: point of attachment. bhGly(phenylbutyl) = 3-((4-phenylbutyl)amino)propanoic acid, O=C(CCN(CCCCc1ccccc1)[*:1])[*:2]; Carnitine = carnitine group on the Lys side chain, C[N+](C)(C)C[C@H](O)CC(=O)*; Ala(1H-tetrazol-5-yl) = N[C@@H](Cc1nnn[nH]1)C(=O)O; C18 diacid = O=C(O)CCCCCCCCCCCCCCCCC(=O)*; Dip = N[C@H](C(=O)O)C(c1ccccc1)c1ccccc1; His(τ-Me) = Cn1cnc(C[C@H](N)C(=O)O)c1; Palmitoyl = CCCCCCCCCCCCCCCC(=O)*; β3hF = N[C@H](CC(=O)O)Cc1ccccc1; DMG_N_2ae = not defined here; NMeK = CN[C@@H](CCCCN)C(=O)O; Isovaleryl = CC(C)CC(=O)*; Dap = NC[C@H](N)C(=O)O; AEEA = NCCOCCOCC(=O)O; Ahx = NCCCCCC(=O)O

What was measured:
Assay in all cases: cell-based or functional assay
[1] = target: T1, human ferroportin (SLC40A1) fused in frame with GFP, stably expressed in HEK293 cells (human, UniProt Q9NP59 1-571)
T1 sequence (looked up): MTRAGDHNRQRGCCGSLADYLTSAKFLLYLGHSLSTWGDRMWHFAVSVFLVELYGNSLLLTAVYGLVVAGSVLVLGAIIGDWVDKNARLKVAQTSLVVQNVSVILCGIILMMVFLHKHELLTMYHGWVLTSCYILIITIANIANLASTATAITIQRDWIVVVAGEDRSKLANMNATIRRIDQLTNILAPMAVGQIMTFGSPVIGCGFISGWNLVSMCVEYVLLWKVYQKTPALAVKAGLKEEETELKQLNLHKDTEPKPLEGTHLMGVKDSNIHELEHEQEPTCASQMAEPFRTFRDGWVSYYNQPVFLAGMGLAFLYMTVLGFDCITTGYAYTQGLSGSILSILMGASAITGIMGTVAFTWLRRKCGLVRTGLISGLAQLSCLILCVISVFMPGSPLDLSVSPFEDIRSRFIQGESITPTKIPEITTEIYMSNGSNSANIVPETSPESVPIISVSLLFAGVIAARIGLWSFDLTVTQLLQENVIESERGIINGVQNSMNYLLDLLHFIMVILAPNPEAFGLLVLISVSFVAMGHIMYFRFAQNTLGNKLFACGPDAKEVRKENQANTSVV

[2] = target: T1, human ferroportin (SLC40A1) fused in …; remark: listed apart in the source
[3] = target: T1, human ferroportin (SLC40A1) fused in …; remark: listed apart in the source
[4] = target: T2, ferroportin endogenously expressed on T47D cells (HTB 133, ATCC) (human, UniProt Q9NP59 1-571)
T2 sequence (looked up): T1 sequence (looked up)

IC50: FPN internalisation [1]: 13.6 nM
Binder: Isovaleryl-KTH[Dip]P[DMG_N_2ae]E[β3hF]K([Ahx-Palmitoyl])-NH2 (reading uncertain) [[Isovaleric Acid]-K-T-H-[Dpa]-P-[DMG_N_2ae]-E-[bhPhe]-[Lys(Ahx_Palm)]-NH2]

FPN IC50 [2]: 76 nM
Binder: Isovaleryl-K(Gal)TH[Dip]PAIK([Ahx-Palmitoyl])[β3hF]-NH2 [Isovaleric Acid-[Lys(Gal)]-T-H-[Dpa]-P-A-I-[Lys(Ahx_Palm)]-[bhPhe]-NH2]

FPN EC50 [3]: 588 nM
T47D MSA IC50 [4]: 261 nM
Binder: Isovaleryl-ETHFPAIK([AEEA-AEEA-Ahx-C18 diacid])FEPRSKGAK-NH2 [Isovaleric Acid-E-T-H-F-P-A-I-[Lys(1Peg2_1Peg2_Ahx_C18_Diacid)]-F-E-P-R-S-K-G-A-K-NH2]

FPN IC50 [2]: 2150 nM
Binder: K(Isovaleryl)TH[Dip]PAIK([Ahx-Palmitoyl])[bhF] (also: marks (1:1) at Lys1 and (1:2) at bhF9 not explained) [[Lys(IVA(1:1)-T-H-[Dpa]-P-A-I-[Lys(Ahx_Palm)]-bhF(1:2)]

IC50: FPN internalisation [1]: 597 nM
Binder: Isovaleryl-[Dap]TH[Dip]PAI[NMeK]([Ahx-Palmitoyl])[bhGly(phenylbutyl)] [[Isovaleric Acid]-[Dap]-T-H-[Dpa]-P-A-I-[N-MeLys(Ahx_Palm)]-[bhGly(phenylbutyl)]]

FPN EC50 [3]: 23.9 nM
T47D MSA IC50 [4]: 3.94 nM
B4: Isovaleric Acid-[Tet1]-T-[(1Me)His]-[Dpa]-P-A-I-[(N-Me)Lys]-[bhPhe]-[Lys(Ahx_Palm)]-NH2 (peptide)
peptide: Isovaleryl-[Ala(1H-tetrazol-5-yl)]T[His(τ-Me)][Dip]PAI[NMeK][β3hF]K([Ahx-Palmitoyl])-NH2
SMILES: CCCCCCCCCCCCCCCC(=O)NCCCCCC(=O)NCCCC[C@H](NC(=O)C[C@H](Cc1ccccc1)NC(=O)[C@H](CCCCN)N(C)C(=O)[C@@H](NC(=O)[C@H](C)NC(=O)[C@@H]1CCCN1C(=O)[C@@H](NC(=O)[C@H](Cc1cn(C)cn1)NC(=O)[C@@H](NC(=O)[C@H](Cc1nnn[nH]1)NC(=O)CC(C)C)[C@@H](C)O)C(c1ccccc1)c1ccccc1)[C@@H](C)CC)C(N)=O

IC50: FPN internalisation [1]: 10.7 nM
B5: [Isovaleric Acid]-K-T-H-[Dpa]-P-A-I-E-[bhPhe]-[Lys(Ahx_Palm)]-[Lys(Carnitine)]-NH2 (peptide)
peptide: Isovaleryl-KTH[Dip]PAIE[β3hF]K([Ahx-Palmitoyl])K(Carnitine)-NH2
SMILES: CCCCCCCCCCCCCCCC(=O)NCCCCCC(=O)NCCCC[C@H](NC(=O)C[C@H](Cc1ccccc1)NC(=O)[C@H](CCC(=O)O)NC(=O)[C@@H](NC(=O)[C@H](C)NC(=O)[C@@H]1CCCN1C(=O)[C@@H](NC(=O)[C@H](Cc1c[nH]cn1)NC(=O)[C@@H](NC(=O)[C@H](CCCCN)NC(=O)CC(C)C)[C@@H](C)O)C(c1ccccc1)c1ccccc1)[C@@H](C)CC)C(=O)N[C@@H](CCCCNC(=O)C[C@@H](O)C[N+](C)(C)C)C(N)=O

Further lines, the binder ahead of its results:

B1: Isovaleric Acid-E-T-H-[Dpa]-A-A-I-[(D)Lys]-[bhPhe]-[Lys(Ahx_Palm)]-[(D)Lys]-A-NH2 (peptide)
peptide: Isovaleryl-ETH[Dip]AAI[dK][β3hF]K([Ahx-Palmitoyl])[dK]A-NH2
SMILES: CCCCCCCCCCCCCCCC(=O)NCCCCCC(=O)NCCCC[C@H](NC(=O)C[C@H](Cc1ccccc1)NC(=O)[C@@H](CCCCN)NC(=O)[C@@H](NC(=O)[C@H](C)NC(=O)[C@H](C)NC(=O)[C@@H](NC(=O)[C@H](Cc1c[nH]cn1)NC(=O)[C@@H](NC(=O)[C@H](CCC(=O)O)NC(=O)CC(C)C)[C@@H](C)O)C(c1ccccc1)c1ccccc1)[C@@H](C)CC)C(=O)N[C@H](CCCCN)C(=O)N[C@@H](C)C(N)=O
FPN IC50 [2]: 183 nM

Binder: Isovaleryl-ETH[Dip]P[DMG_N_2ae][NMeK]([Ahx-Palmitoyl])[β3hF]-NH2 (reading uncertain) [[Isovaleric Acid]-E-T-H-[Dpa]-P-[DMG_N_2ae]-[N-MeLys(Ahx_Palm)]-[bhPhe]-NH2]
IC50: FPN internalisation [1]: 10.7 nM

B2: Isovaleric Acid-K-T-H-[Dpa]-P-A-I-E-[bhPhe]-[Lys(Ahx_Palm)]-R-NH2; (K and E cyclized) (peptide)
peptide: XKTHXPAIEXXR
modifications: N-term Isovaleric Acid; Dpa4; bhPhe9; Lys(Ahx_Palm)10; C-term NH2; K and E cyclized (lactam)
FPN EC50 [3]: 13.8 nM
T47D MSA IC50 [4]: 1.74 nM

B3: Isovaleric Acid-E-T-H-[Dpa]-P-A-I-[(D)Lys]-[bhPhe]-[Lys(Ahx_Palm)]-[(D)Lys]-A-NH2 (peptide)
peptide: Isovaleryl-ETH[Dip]PAI[dK][β3hF]K([Ahx-Palmitoyl])[dK]A-NH2
SMILES: CCCCCCCCCCCCCCCC(=O)NCCCCCC(=O)NCCCC[C@H](NC(=O)C[C@H](Cc1ccccc1)NC(=O)[C@@H](CCCCN)NC(=O)[C@@H](NC(=O)[C@H](C)NC(=O)[C@@H]1CCCN1C(=O)[C@@H](NC(=O)[C@H](Cc1c[nH]cn1)NC(=O)[C@@H](NC(=O)[C@H](CCC(=O)O)NC(=O)CC(C)C)[C@@H](C)O)C(c1ccccc1)c1ccccc1)[C@@H](C)CC)C(=O)N[C@H](CCCCN)C(=O)N[C@@H](C)C(N)=O
FPN EC50 [3]: 17.8 nM
T47D MSA IC50 [4]: 5.97 nM

Binder: Isovaleryl-ETH[Dip][dK](Gal)AIK([Ahx-Palmitoyl])[β3hF]-NH2 [Isovaleric Acid-E-T-H-[Dpa]-d[Lys(Gal)]-A-I-[Lys(Ahx_Palm)]-[bhPhe]-NH2]
FPN IC50 [2]: 654 nM

Binder: DiIsoAmylAmine_CH2_Acid-TH[Dip]PAIK([Ahx-Palmitoyl])[β3hF][dK]-NH2 [[DiIsoAmylAmine_CH2_Acid]-T-H-[Dpa]-P-A-I-[Lys(Ahx_Palm)]-[bhPhe]-[(D)Lys]-NH2]
FPN EC50 [3]: 25.9 nM
T47D MSA IC50 [4]: 52.9 nM
